From the NTF2 design screens of Basanta et al. (2020)

Experiment: protease stability score; higher = more stable; yeast display proteolysis, trypsin and chymotrypsin;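 also: relative to predicted unfolded state with 0 unfolded-like and 1 meaning tenfold more protease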

Sequence | protease stability score
SDLHHIVDNLLQEWLHARLTGDEDRLLELMDPDAREDVNGRTLVGREDSWKIMLELRFRVEHWHIHRLEIQGDKIDMDIEFDVRFDVDGVPYRLRTRQKIHIDVYNGKIQRLQVHIL | 0.325
DEDHEQSHEMLELFVHSWKTGDWEILIKLLDPHARSIVNGREVHGREEISRYFKEELKKIPNMRIEVKIRSVEIQGDKVDNDVEIIIKYGDKLIRRKVHLLDLKVDGRWFLTDVTIE | 1.96
DEDEKRWFDRADEVRRQWETGDFERHLRLMDPHVRMEVQQGDKHEEYHGRENVMEIIRQELERVKNVKLEVTDLEIQGEKVILRLKLHVNGRDIDIYIDIVFINGRIKHIRIRIQER | 1.38
DHHKESSEYLVRDYYEYIETGDFKRMEELADPNMKVVVGDKTHHGRESLSVVYLRLGIKHWDIKRIHNIGNKIRIHSTIFVDGVDMHEHSHAEKIDGRWLLRELSFE | 0.319
DEEDEMAISLAKLFVDDLMTGNWRSLQHLLDPHTRLHVGDKEHHGRQKSVEWLKDLVRRIDHLEMDIHRLDVQGEKAESETESNVNIGDKEVRYHMELIILVVNGRVKEIEIRLG | 0.941
TEHRHLIEQHLRDLQHDMRTGDEDNLHKLADPHVRVDIDGRQLHGREAWSKTMFELRTDIRVDRFDVQGNKIHIEGHLIEHFDGRTINMRVHIIWFKVDGRWLIHEVRIE | 1.22
HELQEEATRFIKEFQEAVRTGDWRLWKKQLDPHVRLDIDGRHYHGRDIVLEFLRELEDKMGIERENVHIEHIDFQGDKVIVHSKEHGIVNGQRFDDKSSSIVLKINGQWTLHSVKIR | 1.19
SEVEDFLHEFVRKLVRVLDTGDWEVLEKMFDPNTRFHIGDKELHGREEFVKFTEELGIRVRWELKDIRFQGDKAETIGTERVDFNGKEITTDVTFEVLLFNGVIKEIRIRRR | 1.36
DEEEEEDKRMADEIVHSFLTGNEDWLHELADPNTRSEVGDKEAHGRENMVKLLRIHLRELGVDHIELTHVRVHSQGDKIIVIVHGKVKIGDKILELHIHIIVLKIDGRWLLHSVRIEIN | 1.09
SEEEETIRRVAEVLVHSILTGDEHFEENYLDPNARIDVNGKHFIGRERYLEAIRDLNEHLGWELKDVKLREVNVQGDKMHLKMEIKRHVNGKDLFIDMHVNVWKVNGKWLIRSLRYS | 1.44
DEHEREMHRLVDLLIKLLETGDEEISLRLADPHTRHDINGVHDHGRDKWEKSWEEHKKHLGWRIHYRIRDFRTQGDKARMEIQVDLHIGDKNIHLETHLLLISIDGVIKEIRIIIL | 1.39
SEVDEQAEHMSRLYLKLIKTGDEEHLMHLADPHTRLDINGKTFIGMEVVHEFNEKERRRVPNMRIHEKSVKVEVFDGRAFTEIHGEWHFDGVTQEIRIEVRIDKVNGRWTIRSVHVEIR | 0.704
DEEEELLRRMLHLLYHFLKTGDEDTLSRLMDPNYLLIIGDKEHHGREEYRKVMKRADVLEIMHIHDVHFQGDKIHIDGHSRWRVGDKMHETRIEIIAVKFNGRWHFHSIIVR | 0.804
SEAEKRSEIILRLILHSLHTGDEHTLESLFDPNVRILIGDKELVGMEELSKLLRHIRIERVHIHLRDDRQQGDKADMDVELHRHGTFNGVRRDESSRIWIHAEKVDGRWVISEVIVH | 1.02
DEEEEDMKNMLRIWEETVETGDEHTKERFADPNMRLVVNGVSSHGMESFKTVIKWEHERYDHLKKIEIHRLEFFDGRVIIDGTFTGNIDGVEYKRRIILIMVKVDGRWLLEEVIIH | 1.39
SEDEEFARTAVELVSEAWETGDENLEEHLLDPNVKIDIGDKELHGMESSIKYWREIRIHLLHVEIHSVEFFDGRVILDTRFKFDGDFDGKRIERSSTMIWIAHKVDGRWRVHHMENR | 1.25
EEDDKFSELAFNMLVESFKTGDEQHWRELADPRVKYQIDGRDLIGWTAFRRFLNEFGIDHMHIKLHDHRDYNGQVELDETLEIRYGDKTEHIKVTTIVHKINGQWIVKSFSVH | 0.682
DEREKEAKTLHQEWFRALQTGNEKRLHELLDPHVRSDVNGVKLHGRHALIKFLVKWLRQIDHNERLEIHDIRFQGDKSEEDVRVVVHIDGRRIDYETHVHLDIYDGVIREVEIDIK | 1.18
HESDKLVDEIFKTFIHAIVTGDEETLKTMLDPNTKFILIYGDKYHEHHGWRDLIRWLREIRIREIIHRHVENQGDKVHHEGELRGEFNGKEIRTEIHIHMVVVNGKLRRMEWEIK | 2.07
SEDETHFKHMWKLILDTSITGNEELLKTLFDPHYRLSVDGVEFHGREALRYWLDRVDHVEDHRIKSFELQGDKIYMNGESKTQQGDKTHSHDIHIFTKKIDGQWVIHSLHVR | 1.16
HEHKEEVDELISMALESMHTGDEETWYRMADPHVRMDVNGQDIHGREEVSEIYVHWLREAGVKHIKIEDVKVINGRVDLHIFSKVNGRFFEYRLISEKIDGQWHIKSVRIL | 0.399
DEDTEAAREMLEIIVKSLFTGDEKSLLRLADPNWKLHQGNFSWHGRESVRRFHKEIRVHFDDIRVHRFSTINGRVHIDGHIHITVHIDGQTIHIDSDTTWHMVIINGKMHHAIIIHV | 0.881
DERESLLEKLLRLWIELLKTGDEDTMLKLADPDAKYHVNGKDFHGWELASRIWFEERERLGIKHVHDHEIRFQGEKTELHGILLFDGVDVKFRIIIIVFNGRLHHVIVERD | 1.53
DRIEELSEEALHILKEVVRTGDERLIEENMDPNTRLEIGDKEFHGRHYAERFARDLGIKHMTFHHYETIDGRVHIHGTLHFNGRTHHTQIVLLKVNGQWRIERIHID | 0.669
DEENNIVKLLFHLYVRAIETGDWKTLEKLADPNYRTIFDGKDLHGREHYMRWVRELRVEDIKLNHIHMQGDKLSIDGEIDVRVGDKETRFEVHIIAEKINGRWILRSSIID | 1.82
